Data on 1 molecule can be found in US20180194853A1 (published 2018).

The target of one assay is T1, recombinant human IL-2Rβ (human, UniProt P14784 27-240).
T1 construct: Recombinant chain immobilised on the SPR chip and used as ELISA antigen; also called CD122; interleukin 2 receptor β
T1 sequence (looked up): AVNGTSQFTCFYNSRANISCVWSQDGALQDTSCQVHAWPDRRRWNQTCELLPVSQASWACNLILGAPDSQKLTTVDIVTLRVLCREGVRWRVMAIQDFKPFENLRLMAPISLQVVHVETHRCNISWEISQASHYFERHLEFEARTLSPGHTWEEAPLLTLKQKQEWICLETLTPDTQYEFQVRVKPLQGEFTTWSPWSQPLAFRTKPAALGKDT
Put plainly: SPR, receptor chain immobilised on the chip, antibody flowed over. On the procedure:
(§1) Association/dissociation of the anti-IL-2Rβ/γc bispecific antibody to/from the receptor chains was measured in Surface Plasmon Resonance using recombinant IL-2Rβ or γc chains immobilised on a chip, and flowing various concentrations of the antibody over the surface.
A general note: Surface plasmon resonance follows binding to a sensor surface in real time, without labels.

A further assay deals with T2, recombinant human γc (human, UniProt P31785 23-262).
T2 construct: Recombinant chain immobilised on the SPR chip and used as ELISA antigen; also called common γ chain; CD132
T2 sequence (looked up): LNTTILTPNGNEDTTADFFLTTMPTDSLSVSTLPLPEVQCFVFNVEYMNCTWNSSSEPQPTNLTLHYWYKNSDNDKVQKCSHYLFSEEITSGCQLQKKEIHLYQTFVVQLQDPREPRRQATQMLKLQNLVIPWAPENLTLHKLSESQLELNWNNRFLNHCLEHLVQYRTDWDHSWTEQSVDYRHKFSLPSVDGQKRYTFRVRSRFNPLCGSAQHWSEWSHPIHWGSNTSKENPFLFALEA
The assay is described as above. On the procedure:
as §1

B1: bispecific anti-IL-2Rβ/γc antibody P2H7/P2B9 (bispecific antibody)
chain 1: not shown
chain 2: QVQLQESGPGLVKPSETLSLTCTVSGGSISSSSYYWGWIRQPPGKGLEWIGSIYYSGSTYYNPSLKSRVTISVDTSKNQFSLKLSSVTAADTAVYYCAGDILTGYALDYWGQGTLVTVSSGGGGSGGGGSGGGGSSYELTQPPSMSVSPGQTARITCSGDALPKQFAFWYQQKPGQAPVLVIYKDTERPSGIPERFSGSSSGTTVTLTITGVQAEDEADYYCQSPDSSGTVEVFGGGTKLTVLNSGAGTAAATHTCPPCPAPEAAGGPSVFLFPPKPKDTLMISRTPEVTCVVVDVSHEDPEVKFNWYVDGVEVHNAKTKPREEQYNSTYRVVSVLTVLHQDWLNGKEYKCKVSNKALPAPIEKTISKAKGQPREPQVCTLPPSRDELTKNQVSLSCAVKGFYPSDIAVEWESNGQPENNYKTTPPVLDSDGSFFLVSKLTVDKSRWQQGNVFSCSVMHEALHNHYTQKSLSLSPGK
The Kd is the equilibrium constant for the complex coming apart. In the case of B1, the Kd in the assay with recombinant human IL-2Rβ was 101 nM; with recombinant human γc, 79.8 nM.
